From publication PMC5578738 come the findings set out here.

Some results are limits rather than exact numbers.

For assay [1], the target named is Beat-Ic complete ectodomain, biotinylated (SPR) (Drosophila melanogaster) (UniProt Q7JUP9). In words: SPR; Biacore 3000; biotinylated Beat-VI or Beat-Ic captured on an SA chip, Side-II or Side-III fragments flowed over; HBSp+ and 1% (w/v) BSA; equilibrium fit, three titration series.
The target of assay [2] is Side-VI (CG34114) complete ectodomain, biotinylated (SPR) (Drosophila melanogaster) (UniProt Q0KI85). In words: SPR; Biacore T100; biotinylated Side-VI captured on an SA chip, Beat-Va or Beat-Vb flowed over; HBSp+ with 500 mM NaCl and 15% glycerol; equilibrium responses fitted to a Langmuir isotherm.
Sequence of Side-VI (CG34114) complete ectodomain, biotinylated (SPR) (Drosophila melanogaster) (Q0KI85 entry or part of it): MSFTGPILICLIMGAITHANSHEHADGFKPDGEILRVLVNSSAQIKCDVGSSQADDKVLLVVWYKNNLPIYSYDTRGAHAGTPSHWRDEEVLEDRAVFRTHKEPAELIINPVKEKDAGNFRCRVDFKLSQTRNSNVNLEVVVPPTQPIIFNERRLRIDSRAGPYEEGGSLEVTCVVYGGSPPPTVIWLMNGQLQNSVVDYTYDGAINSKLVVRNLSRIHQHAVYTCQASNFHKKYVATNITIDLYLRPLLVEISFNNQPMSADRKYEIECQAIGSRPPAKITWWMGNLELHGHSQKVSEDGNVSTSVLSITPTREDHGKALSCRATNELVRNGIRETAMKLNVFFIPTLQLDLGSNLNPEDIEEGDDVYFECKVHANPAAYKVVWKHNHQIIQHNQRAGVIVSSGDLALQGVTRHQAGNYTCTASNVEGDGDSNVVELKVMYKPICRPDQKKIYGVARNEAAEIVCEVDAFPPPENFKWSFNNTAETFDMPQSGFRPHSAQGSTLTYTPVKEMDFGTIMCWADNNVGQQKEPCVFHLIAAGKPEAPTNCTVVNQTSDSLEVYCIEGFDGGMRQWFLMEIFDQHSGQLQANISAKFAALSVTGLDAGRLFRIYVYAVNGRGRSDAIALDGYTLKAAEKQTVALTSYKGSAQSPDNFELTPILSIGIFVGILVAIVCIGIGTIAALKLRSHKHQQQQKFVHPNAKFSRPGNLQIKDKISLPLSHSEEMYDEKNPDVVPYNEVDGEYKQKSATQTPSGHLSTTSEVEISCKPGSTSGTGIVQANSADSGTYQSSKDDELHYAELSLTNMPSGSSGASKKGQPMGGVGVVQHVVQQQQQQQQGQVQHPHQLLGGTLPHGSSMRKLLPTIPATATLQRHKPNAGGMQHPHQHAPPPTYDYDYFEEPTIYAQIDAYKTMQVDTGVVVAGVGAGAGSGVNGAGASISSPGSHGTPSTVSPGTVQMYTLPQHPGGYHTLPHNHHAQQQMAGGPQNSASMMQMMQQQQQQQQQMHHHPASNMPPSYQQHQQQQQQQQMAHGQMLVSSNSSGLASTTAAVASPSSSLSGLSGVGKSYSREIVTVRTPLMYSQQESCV
Assay [3] has as its target Beat-VI complete ectodomain, biotinylated (SPR) (Drosophila melanogaster) (UniProt Q9VAV8). In words: SPR; Biacore 3000; biotinylated Beat-VI or Beat-Ic captured on an SA chip, Side-II or Side-III fragments flowed over; HBSp+ and 1% (w/v) BSA; equilibrium fit, three titration series. (In general: Surface plasmon resonance follows binding to a sensor surface in real time, without labels.)

Sequence of Beat-Ic complete ectodomain, biotinylated (SPR) (Drosophila melanogaster) (Q7JUP9 entry or part of it): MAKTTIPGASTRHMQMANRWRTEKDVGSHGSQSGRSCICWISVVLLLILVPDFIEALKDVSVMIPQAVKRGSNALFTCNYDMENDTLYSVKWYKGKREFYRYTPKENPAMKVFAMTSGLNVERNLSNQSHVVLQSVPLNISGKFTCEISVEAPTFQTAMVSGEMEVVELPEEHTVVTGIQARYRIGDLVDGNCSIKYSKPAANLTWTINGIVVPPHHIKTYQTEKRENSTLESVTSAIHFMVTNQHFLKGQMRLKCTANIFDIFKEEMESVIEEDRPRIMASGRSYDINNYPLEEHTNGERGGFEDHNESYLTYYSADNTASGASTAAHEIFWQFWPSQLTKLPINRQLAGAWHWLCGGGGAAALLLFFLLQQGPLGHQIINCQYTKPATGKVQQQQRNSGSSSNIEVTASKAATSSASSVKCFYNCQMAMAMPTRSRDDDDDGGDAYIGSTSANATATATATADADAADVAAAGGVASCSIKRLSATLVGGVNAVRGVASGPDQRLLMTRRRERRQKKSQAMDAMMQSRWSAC
Sequence of Beat-VI complete ectodomain, biotinylated (SPR) (Drosophila melanogaster) (Q9VAV8 entry or part of it): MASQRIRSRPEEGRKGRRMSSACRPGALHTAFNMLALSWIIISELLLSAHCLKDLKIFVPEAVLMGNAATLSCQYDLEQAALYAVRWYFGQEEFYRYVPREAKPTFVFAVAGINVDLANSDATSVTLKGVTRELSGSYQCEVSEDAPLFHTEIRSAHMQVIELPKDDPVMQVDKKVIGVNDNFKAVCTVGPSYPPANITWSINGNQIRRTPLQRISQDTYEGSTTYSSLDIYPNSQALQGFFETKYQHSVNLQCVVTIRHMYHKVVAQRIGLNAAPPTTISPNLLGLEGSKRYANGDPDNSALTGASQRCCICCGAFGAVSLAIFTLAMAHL

As usually defined, the Kd is the free concentration of one partner at which half of the binding sites on the other are occupied at equilibrium, for simple one-to-one binding. “Side-III N-terminal single IgSF domain (SPR) (domain or fragment)” came in with a Kd in assay [1] of 63.5 µM.

The koff is the first-order rate constant of dissociation. Take “Beat-Vb complete ectodomain (SPR) (from UniProt Q9VG19 1-328) (domain or fragment)”: in assay [2], the Kd came to 2300 nM and the koff is above 0.5 s⁻¹. In the case of “Side-II N-terminal single IgSF domain (SPR) (from UniProt Q59DZ1 1-1064) (domain or fragment)”, in assay [3], the Kd came out at 2780 nM.
